In article PMC2843633 one finds Kd data, which are given here for one molecule.

The target in this assay is human fibrinogen receptor (GPIIb/IIIa), purified (human) (UniProt P05106). Kind of assay: ELISA; GPIIb/IIIa coated at 40 nM on Nunc Maxisorb plates; 5′Nuc/SUMO 250 – 1.95 nM in solution, 0.1% Tween 20; detected with polyclonal anti-5′Nuc IgG or anti-SUMO IgG; apparent KD from four experiments.

B1: 5′Nuc/SUMO fusion protein (Glossina morsitans morsitans 5′nucleotidase-related protein, recombinant, refolded) (enzyme)
chain: DDLYPLTIMHTNDFHARFEETNVKGNPCKSGEKCIGGLARVLHTIKKIIKEQEKKNIESLYINAGDNFQGTIWYNIGRWNVTSELMNIQPPDVMVLGNHEFDHGIDGLLPFLNNMDKTEIVVANMDARDEPQVAKKIKPFTIIKKKYRNIGVIGVVVEEVPDLANTGKLKFRNESEAILEAARNLKKEDPSVNIIIVVSHVGFDVDKIIAERTGSEVDIIVGGHSHTVLYTGTPPGPEKPEDNYPYVYNHPSGNKVLVVQAVCHAKYVGNLTVFFDKKGKVVTYEGAPIYMDTKVEQDKDVLEAMKPWRKLIDEKTKLVVGRTNVDLPRDICRSEECALGNLYTDSMIYAFGGKENCKSGSTWTTAPIAFVHAGAMRSSLHQGDILYSDALLLSPFTNMVVAYDLPGAQLKAALEFSAAPKNEDEKRRFLQMSGLKVTYNMSRAANNRIVDLKVRTNVCPYDQYENLDEKKTYRVVSPSFLQGGGDGFKMLRDYAKNIQNQKIDLDALVDYLKKFSPLAPKAEGRITIIH
Consider B1, for which the Kd was found to be 92 nM.
